Results on five molecules are retold here after publication PMC8017925, “Structural basis for differential recognition of phosphohistidine-containing peptides by 1-pHis and 3-pHis monoclonal antibodies” (Proceedings of the National Academy of Sciences of the …, 2021).

The target of assay [1] is T1, ACLY peptide, 1-pHis form.
T1 sequence (peptide, biotin on the N-terminus; C-terminal amide; 1-phosphohistidine at position 5): VQFGHAGAC
As to the kind of experiment: BLI; biotinylated pHis peptides (20 nM) on streptavidin biosensors, Fab in solution at varying concentrations; 50 mM Hepes pH 8.0, 150 mM NaCl, 0.05% Tween-20, 0.2% BSA; Octet RED96e; global fit to a 1:1 Langmuir model.

Assay [2] addresses T2, NM23 peptide, 1-pHis form.
T2 sequence (peptide, biotin on the N-terminus; C-terminal amide; 1-phosphohistidine at position 5): RNIIHGSDS
The assay is described as above.

Assay [3] deals with T3, Common-His peptide, 1-pHis form.
T3 sequence (peptide, biotin on the N-terminus; C-terminal amide; 1-phosphohistidine at position 5): GEQLHDLNA
The description is as above.

Substrate in assay [4]: SCS peptide, 1-pHis form
Described as above.

Assay [5] relates to ACLYana-1-pHis peptide (AGAG-1-pHis-AGAG). The assay can be described thus: BLI binding kinetics of 1-pHis Fabs with affinity-purified pHis peptide. The note with it: for ka / kd / Kd: BLI, 1:1 Langmuir global fit, triplicate; for ka / kd: affinity-purified ACLYana-1-pHis peptide; for Kd: ACLYana phosphorylated with phosphoramidate (8 h, 23 °C), 1-pHis isomer affinity-purified on 1-pHis IgG column, immobilized on streptavidin biosensors, Hepes pH 8.0; for affinity to 1-pHis peptides, times weaker than the 1-pTza peptides: ratio of BLI KD, 1-pHis versus 1-pTza peptide. As for the experimental part:
(§1) Biolayer interferometry (BLI) studies were performed to determine the relative affinity of pHis Fabs to in situ phosphorylated His peptides versus the phosphomimetic substrates. The N-terminally biotinylated peptides were immobilized on streptavidin biosensors and the rate of association (ka) and dissociation (kd) were determined by varying the pHis Fab concentration. Equilibrium dissociation constants (KD) were determined by fitting the experimental data to a 1:1 Langmuir binding model. ACLYana-1-pTza and ACLYana-3-pTza peptides were used to determine affinity to 1-pHis and 3-pHis Fabs, respectively (Fig. 3 A–E and Table 1). […] The two isomers were separated from each other by passing the reaction through affinity columns containing 1-pHis mAbs using SC1-1 or SC50-3 IgGs or 3-pHis mAbs using SC39-4, SC44-8, and SC56-2 IgGs. The eluates thus contained either predominantly 1-pHis or 3-pHis peptides. These peptides were used to determine the affinity to their respective isomer class of pHis Fabs (Fig. 3 F–J, Table 1, and SI Appendix, Fig. S5). […] This experimental observation is well supported by the higher number of hydrogen bonds that support the SC44-8:3-pTza interaction compared to other pHis Fabs (SI Appendix, Table S5). […] There are at least three reasons for the lower affinity of the mAbs for pHis peptides compared to pTza peptides: The continuous hydrolysis of phosphate from the pHis peptides during the course of the experiment (SI Appendix, Fig. S6), a reduction in the number of hydrogen bond interactions due to one less nitrogen in the imidazole ring compared to triazolyl ring (Fig. 4 and SI Appendix, Fig. S8), and inherently different electronic properties of the imidazole and triazolyl rings in His and Tza, respectively ([20]).
(§2) Fig. 3. Binding kinetics of pHis Fabs with cognate pTza and pHis peptides. BLI studies of immobilized peptides (ACLYana-1/3-pTza and phosphorylated ACLYana) with varying concentrations of the pHis Fabs were carried out in triplicate on an Octet Red96e instrument (FortéBio). SC1-1 (A) and SC50-3 (B) pHis Fab interaction with their ACLYana-1-pTza peptides. SC39-4 (C), SC44-8 (D), and SC56-2 (E) pHis Fabs interactions with ACLYana-3-pTza peptides. SC1-1 (F), SC50-3 (G), SC39-4 (H), SC44-8 (I), and SC56-2 (J) pHis Fabs interactions with their affinity-purified ACLYana-pHis peptides are represented, Right. The experimental data are represented in the black dashed lines and the nonlinear least-squares fitting was represented in the red continuous lines. The χ^2 for the goodness of fit is under 1.0 for the all the plots.
(§3) The binding kinetics of pHis Fabs with the peptides (pTza and pHis) were evaluated with an Octet RED96e (FortéBio). Streptavidin-coated biosensors (FortéBio) were presoaked in buffer containing 50 mM Hepes pH 8.0, 150 mM NaCl, 0.05% Tween-20, and 0.2% BSA for 15 min. The biotinylated pTza peptides or pHis peptides (20 nM) with and without phosphoramidate treatment were coated onto these streptavidin biosensors and analyzed for their binding to varying concentrations of the pHis Fabs with an association time of 120 s and dissociation time of 200 s. The entire set of experiments was repeated three times. The data were analyzed using the Octet software (FortéBio) and the rates of association and dissociation were obtained by global fitting data to the 1:1 Langmuir interaction model.
Supplementary methods and materials
Peptide Synthesis. Peptides used for the crystallization were synthesized at Sanofi as described in Fuhs et al. (1). Peptides used in the DSF and BLI experiments were synthesized by the Salk Peptide Synthesis Core. These peptides were N-terminally biotinylated and C-terminally amidated. They were synthesized using standard Fmoc chemistry on a Gyros Protein Technologies Tribute peptide synthesizer with UV monitoring. Following the deprotection, peptides were analyzed by mass spectrometry and analytical HPLC by the Proteomics Core at […]
Salk. […]

The target of assay [6] is ACLYana-1-pTza peptide (AGAG-1-pTza-AGAG). The assay can be described thus: BLI binding kinetics of 1-pHis Fabs with cognate pTza peptide. The note with it: triplicate; for Kd: BLI Octet RED96e, N-terminally biotinylated peptide (20 nM) on streptavidin biosensors, varying Fab concentration, 50 mM Hepes pH 8.0, 150 mM NaCl, 0.05% Tween-20, 0.2% BSA, association 120 s, dissociation 200 s, global fit 1:1 Langmuir; for ka / kd: BLI, immobilized biotinylated ACLYana-1-pTza, 1:1 Langmuir global fit. On the procedure:
as §1, §2, §3

Assay [7] shares this target. The assay can be described thus: BLI; N-terminally biotinylated peptides (20 nM) on streptavidin biosensors, varying concentrations of Fab in solution; 50 mM Hepes pH 8.0, 150 mM NaCl, 0.05% Tween-20, 0.2% BSA; association 120 s, dissociation 200 s; global fit to a 1:1 Langmuir model; Octet RED96e; in triplicate.
Assay [8] addresses T4, ACLYana-1-pHis peptide (AGAG-1-pHis-AGAG).
T4 sequence (peptide, 1-phosphohistidine at position 5; biotin on the N-terminus): AGAGHAGAG
Described as above.

B1: SC50-3 Fab (Fab, V domains shown)
VH: QSVKESEGGLFKPTDTLTLTCTASGFSLNGYGVIWVRQAPGKGLEWIGSAGAYGRIYYPNWARSRATITRNTNLNTVSLKMTSLTAADTATYFCARRTNVSTSVGFDSWGPGTLVTVSS
VL: DMTQTPSSKSVPVGDTVTINCQASESVYSNNRLSWFQQKPGQPPKLLIYLVSTLASGVPSRFKGSGSGTQFTLTISDVVCDDAATYYCVGYKSSTTDGLAFGGGTEVVVK
B1: the Kd in assay [1] turned out to be 194 nM; in assay [2] it was 362 nM; in assay [3], 336 nM; in assay [4] it was 411 nM. In addition, the koff in assay [1] worked out at 0.0247 s⁻¹; in assay [2], 0.0176 s⁻¹; in assay [3] it was 0.0243 s⁻¹; in assay [4], 0.0147 s⁻¹. For the same molecule, the association rate constant (kon) in assay [1] is 127000 M⁻¹ s⁻¹; in assay [2], 48500 M⁻¹ s⁻¹; in assay [3], 72200 M⁻¹ s⁻¹; in assay [4], 35800 M⁻¹ s⁻¹.

B2: SC50-3: Fab of rabbit 1-pHis monoclonal antibody, expressed with SC50-3 heavy chain and SC1-1 light chain (antibody, V domains shown)
VH: B1 VH
VL: B1 VL
With B2, in assay [5], the ka came to 175000 ± 1010 M⁻¹ s⁻¹; the kd stood at 0.00494 ± 1.06e-05 s⁻¹; binding was characterised by a dissociation constant (Kd) of 28.3 nM; the “affinity to 1-pHis peptides, times weaker than the 1-pTza peptides” value is given as “two to four times weaker”. In addition, in assay [6], the Kd worked out at 16 nM, the ka was found to be 85100 ± 303 M⁻¹ s⁻¹ and the kd was determined as 0.00136 ± 3.19e-06 s⁻¹.

B3: SC1-1: Fab of rabbit monoclonal antibody that recognizes 1-pHis (antibody, V domains shown)
VH: QSVEESEGGLFKPTDTLTLTCTASGFSLSGHGVIWVRQAPGKGLEWIGSAGAYGRIYYASWAKSRSTITRNTNLNTVTLKMTSLTAADTATYFCARRSDVGTSVGFDSWGPGTLVTISS
VL: B1 VL
Take B3: in assay [5], the ka came to 97300 ± 551 M⁻¹ s⁻¹; the kd was found to be 0.00925 ± 1.33e-05 s⁻¹; the dissociation constant Kd stood at 95.1 nM; the “affinity to 1-pHis peptides, times weaker than the 1-pTza peptides” value is given as “two to four times weaker”. In assay [6], this molecule gave a Kd of 24.8 nM, a ka of 81300 ± 347 M⁻¹ s⁻¹ and a kd of 0.00199 ± 3.19e-06 s⁻¹.

B4: SC50-3 Fab (SC50-3 heavy chain with SC1-1 light chain) (Fab, V domains shown)
VH: B1 VH
VL: B1 VL
As to B4, in assay [7], the Kd was 16 nM, the dissociation rate constant (koff) is 0.00136 s⁻¹ and the kon was found to be 85100 M⁻¹ s⁻¹. Further, in assay [8], the Kd worked out at 28.3 nM, the koff stood at 0.00494 s⁻¹ and the association rate constant (kon) amounted to 175000 M⁻¹ s⁻¹.

B5: SC1-1 Fab (Fab, V domains shown)
VH: B3 VH
VL: B1 VL
As for B5, in assay [7], the dissociation constant (Kd) came to 24.8 nM, the koff turned out to be 0.00199 s⁻¹ and the kon came out at 81300 M⁻¹ s⁻¹. In assay [8], the equilibrium dissociation constant (Kd) stood at 95.1 nM, the off-rate constant (koff) was determined as 0.00925 s⁻¹ and the on-rate constant (kon) turned out to be 97300 M⁻¹ s⁻¹.
